Experimental data published in PMC6598307, “Directed evolution of a genetically encoded immobilized lipase for the efficient production of biodiesel from waste cooking oil” (Biotechnology for Biofuels, 2019).

Substrate: CCCCCCCCCCCCCCCC(=O)Oc1ccc([N+](=O)[O-])cc1
Test: purified protein
Type: biochemical, Proteus mirabilis
Conditions: soluble free enzyme, 0.1 M NaH2PO4 pH 7.0, 25 °C, 1 nM enzyme, pNPP 0-2.25 mM, pNPP stock in MeCN:Triton X-100 1:1

B1: Proteus mirabilis lipase (PML), soluble (Proteus mirabilis HI4320) (protein)
chain: MSTKYPIVLVHGLAGFNEIVGFPYFYGIADALRQDGHQVFTASLSAFNSNEVRGKQLWQFVQTLLQETQAKKVNFIGHSQGPLACRYVAANYPDSVASVTSINGVNHGSEIADLYRRIMRKDSIPEYIVEKVLNAFGTIISTFSGHRGDPQDAIAALESLTTEQVTEFNNKYPQALPKTPGGEGDEIVNGVHYYCFGSYIQGLIAGEKGNLLDPTHAAMRVLNTFFTEKQNDGLVGRSSMRLGKLIKDDYAQDHIDMVNQVAGLVGYNEDIVAIYTQHAKYLASKQL
notes: full-length PML gene in pET28b (NdeI/XhoI), N-terminal His-tag; no signal peptide needed; E. coli BL21(DE3)
Km: 1770 ± 330 µM
kcat: 112 ± 12 s⁻¹
kcat/Km: 63200 ± 210 M⁻¹ s⁻¹
